Legend:
Colo205 [1] = biological target: T1, Colo205; experiment: flow cytometry titration on Colo205 cells, Gm value against concentration
T1 construct: Group of unnamed glycoproteins on whole cells; also called cell surface of Colo205 cells

HCT-15 = biological target: T2, HCT-15; experiment: flow cytometry titration on HCT-15 cells, geometric mean against antibody concentration [panel FACS - HCT-15]
T2 construct: Group of unnamed glycoproteins on whole cells; also called cell surface of HCT-15 cells

LS180 = biological target: T3, LS180; experiment: flow cytometry titration on LS180 cells, geometric mean against antibody concentration [panel FACS - LS180]
T3 construct: Group of unnamed glycoproteins on whole cells; also called cell surface of LS180 cells

BxPC3 = biological target: T4, BxPC3; experiment: flow cytometry titration on BxPC3 cells, geometric mean against antibody concentration [panel FACS - BxPC3]
T4 construct: Group of unnamed glycoproteins on whole cells; also called cell surface of BxPC3 cells

Colo205 [2] = biological target: T1, Colo205; experiment: flow cytometry titration on Colo205 cells, geometric mean against antibody concentration [panel FACS - Colo205]

B1: FG129-scFv (scFv)
scFv: EVQLVESGGGLVQPKGSLKLSCAASGFTFNTYAMNWVRQAPGKGLEWVARIRSKSNNYATYYADSVKDRFTISRDDSQSMLYLQMNNLKKEDTAMYYCVGYGSGGNYWGQGTSVTVSGGGGSGGGGSGGGGSDIVMTQSPSSLTVTAGEKVTMSCKSSQSLLNSGNQKNYLTWYQQKPGQPPKVLIYWASTRESGVPDRFTGSGSGTDFTLTISSVQAEDLAVYYCQNDYSSPFTFGSGTKLEIKRAAAAAAHHHHHH
notes: Order is leader, VH, 3xGGGGS, VL, 6xAla, 6xHis; The leader is left out as secreted from Expi293 cells; also called scFv129
Work on B1 yielded a Kd (Colo205 [1]) of 377 nM.

B2: CH129 (chimeric FG129, mouse variable regions on human IgG1/kappa constant regions) (antibody)
heavy: not shown
light: DIVMTQSPSSLTVTAGEKVTMSCKSSQSLLNSGNQKNYLTWYQQKPGQPPKVLIYWASTRESGVPDRFTGSGSGTDFTLTISSVQAEDLAVYYCQNDYSSPFTFGSGTKLEIKRTVAAPSVFIFPPSDEQLKSGTASVVCLLNNFYPREAKVQWKVDNALQSGNSQESVTEQDSKDSTYSLSSTLTLSKADYEKHKVYACEVTHQGLSSPVTKSFNRGEC
notes: Expressed in CHO-S or HEK293 cells and purified on protein G
In the case of B2, the Kd (HCT-15) is reported as 15.3 nM, the Kd (LS180) is reported as 110 nM and the Kd (BxPC3) is reported as 118 nM. The Kd (Colo205 [2]) was 57.3 nM.

B3: FG129 mAb (mouse FG129/29 IgG1 kappa) (antibody)
heavy: EVQLVESGGGLVQPKGSLKLSCAASGFTFNTYAMNWVRQAPGKGLEWVARIRSKSNNYATYYADSVKDRFTISRDDSQSMLYLQMNNLKKEDTAMYYCVGYGSGGNYWGQGTSVTVSSAKTTPPSVYPLAPGSAAQTNSMVTLGCLVKGYFPEPVTVTWNSGSLSSGVHTFPAVLESDLYTLSSSVTVPSSPRPSETVTCNVAHPASSTKVDKKIVPRDCGCKPCICTVPEVSSVFIFPPKPKDVLTITLTPKVTCVVVDISKDDPEVQFSWFVDDVEVHTAQTQPREEQFNSTFRSVSELPIMHQDWLNGKEFKCRVNSAAFPAPIEKTISKTKGRPKAPQVYTIPPPKEQMAKDKVSLTCMITDFFPEDITVEWQWNGQPAENYKNTQPIMNTNGSYFVYSKLNVQKSNWEAGNTFTCSVLHEGLHNHHTEKSLSHSPGK
light: DIVMTQSPSSLTVTAGEKVTMSCKSSQSLLNSGNQKNYLTWYQQKPGQPPKVLIYWASTRESGVPDRFTGSGSGTDFTLTISSVQAEDLAVYYCQNDYSSPFTFGSGTKLEIKRADAAPTVSIFPPSSEQLTSGGASVVCFLNNFYPKDINVKWKIDGSERQNGVLNSWTDQDSKDSTYSMSSTLTLTKDEYERHNSYTCEATHKTSTSPIVKSFNRNEC
notes: Murine IgG1k from a hybridoma; It recognises the glycans sialyl-di-Lewis a, sialyl-Lewis a-x and mono-sialyl-Lewis a on glycoproteins; also called mAb FG129; F129/29
B3 showed a Kd (HCT-15) of 42.7 nM, a Kd (LS180) of 67.9 nM and a Kd (BxPC3) of 80.2 nM. The Kd (Colo205 [2]) was 53.3 nM.
